Measurements as given in PMC12843318, “Zinc-Finger 5 Is an Activation Domain in the Saccharomyces cerevisiae Stress-Responsive Transcription Factor Fzf1”.

Columns and labels:
Fzf1-N117 = biological target: T1, Fzf1-N117 (Saccharomyces cerevisiae, UniProt P32805 1-117); experiment: EMSA; poly dI-dC, BSA; EMSA: 0.1 pmol dsDNA probe, 2 ng BSA, 0.5 ug poly dI-dC (added after incubation), EMSA binding buffer (composition, salt and pH not given), 20 min on ice, 6% native PAGE; protein 0-150 nM; details: protein: recombinant; tags: N-terminal GST removed by PreScission protease; blunt
T1 sequence: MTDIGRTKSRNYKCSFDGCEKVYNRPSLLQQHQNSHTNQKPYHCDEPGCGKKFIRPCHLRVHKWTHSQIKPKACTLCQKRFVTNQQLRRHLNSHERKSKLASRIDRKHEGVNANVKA

Fzf1 = biological target: T2, Fzf1 (Saccharomyces cerevisiae, UniProt P32805 1-299); experiment: as above; details: protein: recombinant; tags: GST fusion from pGEX-6p-1 (pGEX-FZF1); tag removal by PreScission described only for N117; blunt
T2 sequence: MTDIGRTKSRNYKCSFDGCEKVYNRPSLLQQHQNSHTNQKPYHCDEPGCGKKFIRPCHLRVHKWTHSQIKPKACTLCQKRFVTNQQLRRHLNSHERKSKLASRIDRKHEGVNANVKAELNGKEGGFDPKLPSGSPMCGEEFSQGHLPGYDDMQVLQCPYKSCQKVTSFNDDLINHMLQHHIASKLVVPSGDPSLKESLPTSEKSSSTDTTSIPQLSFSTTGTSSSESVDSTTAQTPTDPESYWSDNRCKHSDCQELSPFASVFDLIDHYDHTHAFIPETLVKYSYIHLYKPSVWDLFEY

B1: SSU1-CS2 (dsDNA)
DNA 1: GAAAAAAAAATGATAGTTTGCAGGAAG
DNA 2: CTTCCTGCAAACTATCATTTTTTTTTC
Work on B1 yielded a Kd (Fzf1-N117) of roughly 30 nM and a Kd (Fzf1) of roughly 35 nM.
